Reference: article PMC3950343 (Genes & Development, 2014)

Molecular target: the molecule itself
Test: SEC-MALS

B1: Rad50-HK^WT (mouse Rad50 hook domain fragment, amino acids 591-773) (domain or fragment, UniProt P70388 591-773, looked up)
chain: RDRLAKLNKELASAEQNKNHINNELKKKEEQLSSYEDKLFDVCGSQDLESDLGRLKEEIEKSSKQRAMLAGATAVYSQFITQLTDENQSCCPVCQRVFQTEAELQEVISDLQSKLRLAPDKLKSTESELKKKERRRDEMLGLVPVRQSIIDLKEKEIPELRNRLQSVNRDIQRLKNDIEEQET
  stoichiometry N: 2
